# B1: Pembrolizumab (antibody, human IgG4 S228P, kappa, V domains shown)
# VH: QVQLVQSGVEVKKPGASVKVSCKASGYTFTNYYMYWVRQAPGQGLEWMGGINPSNGGTNFNEKFKNRVTLTTDSSTTTAYMELKSLQFDDTAVYYCARRDYRFDMGFDYWGQGTTVTVSS
# VL: EIVLTQSPATLSLSPGERATLSCRASKGVSTSGYSYLHWYQQKPGQAPRLLIYLASYLESGVPARFSGSGSGTDFTLTISSLEPEDFAVYYCQHSRDLPLTFGGGTKVEIKR
# notes: also called MK3475
# Molecular target: cynomolgus PD-1 (cynomolgus)
# Experiment: kinetic analysis (bio-light interferometry)
binder,measurement,value
B1,Kd,0.118 nM
